Patent publication US20230192820A1 (published 2023)

B1: MAb362 IgA1 (monomeric) (antibody, V domains shown)
VH: QVQLVESGGGVVQPGRSLRLSCAASGFSFSSYGMHWVRQAPGKGLEWVAVIWYDGSDKYYADSVKGRFTISRDNSKNTLYLQLNSLRAEDTAIYYCARERYFDWIFDFWGQGTLVTVSS
VL: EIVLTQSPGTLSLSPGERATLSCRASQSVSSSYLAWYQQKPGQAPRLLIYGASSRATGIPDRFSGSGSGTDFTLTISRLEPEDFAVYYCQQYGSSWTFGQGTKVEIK
B2: MAb362 IgG1 (antibody, V domains shown)
VH: B1 VH
VL: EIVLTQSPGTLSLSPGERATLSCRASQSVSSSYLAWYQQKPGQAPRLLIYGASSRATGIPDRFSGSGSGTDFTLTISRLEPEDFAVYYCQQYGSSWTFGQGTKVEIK

Molecular target: stabilized trimer of the full ectodomain of SARS-CoV-2 spike protein (residues 1-1208, NIAID VRC7471) (SARS-CoV-2, UniProt P0DTC2 14-1208)

Binder | Kd [nM]
B1 | 0.17
B2 | 27
